According to patent US20260117212, “OPTIMIZED ENGINEERED MEGANUCLEASES HAVING SPECIFICITY FOR THE HUMAN T CELL RECEPTOR ALPHA CONSTANT REGION GENE” (Precision BioSciences, Inc., published 2026):
Changes are numbered by the printed parent chain.

Experiments:
[1] = molecular target: T1, TRC 1-2L.1592 meganuclease (synthetic construct); test: cell_activity; CD3 knockout in primary human T cells; EC90 0.545 ug
T1 chain: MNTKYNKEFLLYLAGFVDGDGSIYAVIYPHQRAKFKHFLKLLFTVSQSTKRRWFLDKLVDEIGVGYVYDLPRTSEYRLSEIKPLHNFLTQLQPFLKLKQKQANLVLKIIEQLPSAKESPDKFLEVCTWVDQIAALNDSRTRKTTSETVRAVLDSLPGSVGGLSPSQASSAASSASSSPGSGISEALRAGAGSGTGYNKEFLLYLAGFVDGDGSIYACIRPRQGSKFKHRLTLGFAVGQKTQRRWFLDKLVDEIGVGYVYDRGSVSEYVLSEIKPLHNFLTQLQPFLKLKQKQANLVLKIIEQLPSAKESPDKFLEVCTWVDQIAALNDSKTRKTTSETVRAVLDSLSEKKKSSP
Protocol: (§1) In this study, an apheresis sample was drawn from a healthy, informed, and compensated donor, and the T cells were enriched using the CD3 positive selection kit II in accord with the manufacturer's instructions (Stem Cell Technologies). T cells were prepared for editing by stimulating with ImmunoCult anti-CD3/CD28/CD2 (Stem Cell Technologies) for three days in Xuri medium (GE Healthcare) supplemented with fetal bovine serum to 5% (Gemini Bio) and recombinant human IL-2 to 10 ng/ml (Gibco). Stimulated T cells were harvested and counted (Countess II, ThermoFisher) before electroporation was carried out on the Lonza 4-D NucleoFector using a titrated range of mRNA encoding TRC 1-2L.1592 or TRC 1-2L.2307. The concentrations used for this study were 2, 1, 0.5, 0.25, 0.125, and 0.0625 μg of RNA per 1×10⁶ stimulated T cells. Cells were subsequently cultured as above with IL-2 supplemented to 30 ng/ml.
(§2) Using cell counts and frequency of TRAC-edited CAR+ events, the number of CAR T cells produced using each TRC1-2 variant were calculated and plotted in FIG. 7. GraphPad Prism was used to calculate EC50 and EC90 values for TRC 1-2L.1592 (FIG. 7A), and TRC 1-2L.2307 (FIG. 7B).

[2] = molecular target: T2, TRC 1-2L.2307 meganuclease (synthetic construct); test: cell_activity; CD3 knockout in primary human T cells; EC90 0.354 ug; settings: tags: N-terminal SV40 NLS (mRNA delivered)
T2 chain: T1 chain with G19A, H37Y, S46N, L70G, R77H, G223C, E271Q
Protocol: as §1, §2

B1: TRC 1-2 recognition sequence (dsDNA)
DNA 1: TGGCCTGGAGCAACAAATCTGA
DNA 2: TCAGATTTGTTGCTCCAGGCCA
Q: What does the source list for B1?
A: EC50 [1]: 0.372 ug mRNA per 1e6 cells; EC50 [2]: 0.179 ug mRNA per 1e6 cells
